The text below walks through data of PMC6689063.

This experiment deals with T1, AztC from Paracoccus denitrificans (WT PdAztC), solute binding protein of the AztABC zinc transporter (Paracoccus denitrificans PD1222) (UniProt A1B2F3).
T1 sequence: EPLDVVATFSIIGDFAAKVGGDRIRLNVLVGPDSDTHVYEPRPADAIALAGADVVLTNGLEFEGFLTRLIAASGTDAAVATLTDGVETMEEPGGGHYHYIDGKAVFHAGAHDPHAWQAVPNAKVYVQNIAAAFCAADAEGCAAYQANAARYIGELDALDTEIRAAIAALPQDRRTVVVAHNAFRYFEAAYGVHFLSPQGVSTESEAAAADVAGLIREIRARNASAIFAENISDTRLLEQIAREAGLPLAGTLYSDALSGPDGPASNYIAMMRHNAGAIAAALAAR

B1: ΔS1 PdAztD (H124A/H167A/H218A) (natural protein)
chain: QDHDHDHEDVTLYRVFVGDHEKGQVTAFDLAEPDHRWTFPTTGQVKLYSVAGGAVVAAVQSDADTVQFIRSGISFHDHGDHRDIEVGDPAAIDASLTGPRPFALVEHDGKVVLNYDQGGYAEILDGHALAEGKAEPGRFPQARAHAGFVAPLGGNWLSTVASDEKVEGDASVPRLGLQAFDAEGNPAGNLATCTGIAGEAFSGAYLAAGCKEGVLTVKAGANGSEYKLLPYPADLPQGVTTGTLLGSTGIQVFLGNYGPDGLVVIDPVDEPHYRYIKLPFRRVDFALDPAKPSTGYVLTEDGSLHRIDLLKAEIVASAKVTEPYSMDGHWNDPRPRIAMAGDEIVVTDPNAGLVRRIATEDLSERGTVPVEGKPYNIAVTGGSGVTH
Take B1: the zinc transferred to AztC after incubation of 100 μM each protein with 1 mM EDTA, anion exchange chromatography and zinc quantitation by ICP-OES (equivalent of zinc) stood at 1.
